assay: soluble on expression in E. coli; label from the status in PepcDB or PDB records

**Q.** Which “soluble on expression in E. coli” value does the source give for “MGSDKIHHHHHHMKVKIGDLTKIKTGKLDANVSSEDGKYPFFTCSKEPLKISTYSYDCECVLVAGNGDLNVKYYNGKFDAYQRTYIIEANGSGKLYMPYLYYFMEDYIDELRKQAIGGVIKYIKLANLTDALIELPSVDEQKSIVEILKKVKGILDKRNDEIRELDNLIKARFVEMFGDPRSNPFGFEKKRLKDTCKVITGNTPSRAIEEYYGDYIEWIKTDNIVSGILNPTQATESLSEKGMNVGRTVEKDSILMACIAGSIASIGRVCITDRTVAFNQQINAVVPEQYNILFLYVLFQMSKDYLVEDINMALKGILSKSKLEEKEFIIPPMDLQEQFSDFVKQVDKSKFDTMTFAPIYAIINLYLHTYFYQGRR” here?
**A.** not soluble

**Q.** For “NKDWNVYASANFNYNRQEITKLFFGLNKYMLPNTGTIWEIGYPNSFYMAEYAGIDKKTGKQLWYVPGQVDADGNKVTTSQYSADLETRIDKSVTPPITGGFSLGASWKGLSLDADFAYIVGKWMINNDRYFTENGGGLMQLNKDKMLLNAWTEDNKETDVPKLGQSPQFDTHLLENASFLRLKNLKLTYVLPNSLFAGQNVIGGARVYLMARNLLTVTKYKGFDPEAGGNVGKNQYPNSKQYVAGIQLSF”, which “soluble on expression in E. coli” value is on record?
**A.** not soluble

**Q.** Which “soluble on expression in E. coli” value does the source give for “GPGSMNGEFPVLVSHHKLLMLPTVGVARYDSGNAGIIGEQTHNFHVIPEIELIVVRVHGKMTEYQHNHLLLTSVLQLHAKPLHLFLTNASINIQHIFAMTITMLHAIRFCPSGSTGPCCKHRQIRPIEHNEKEHAALTYLKTIVTGWHPQQTINMIMVLFAQPQEIVVPQ” here?
**A.** not soluble

**Q.** For “MVDVIVIGAGIGGLTAAALLQERGFSTVVFEKNRFPGGSCSSFEKGGYTFDAGASVFYGFCDDDAMGTLNLHSRIFRKLGIAVETIPDPVQIHYHMPGGFDVPAWFDRDRFLESLCRRFPHERTGIRKFYDELESVYEILNSLPAGSLEDVIHLGVVGARHPLKVMALGVKTLFSMGNVARRYISDKELLRFIDLEAYSWAVQDAVSTPLVNAGICLADRHHGGINYPVGGSGTIPAALVKGFEKFGGSIRFGSEVSKVIVKNGSAVGVRLSDGTEVSAKAVVSNATVWDTFSKLVDDPRLRIPDDRFIKAPSWFQIWLGVDGSIVPPGFHMHHIIVDDWSKYDELGGTIYFSAPSVLDPSLAPPGKHALHLFVTAETWQWEQYEYRSQEYKAAKEAFAKSLIARAERLLPGIQDATELMVTATPQSHARYLNRRDGSYGPLLKPGQNILLKPQNRTPIKNLFAAGDSTFPGQGVIAVTYSGVSCASYIARQLGKALDYLLEHHHHHH”, which “soluble on expression in E. coli” value is on record?
**A.** not soluble

**Q.** Which “soluble on expression in E. coli” value does the source give for “MSLSDKHIKQTVLNSNDNRISPSHVCDIFLPQNGLSERWKAFTRRRFVIAETGFGTGLSFLTACQQFTQFRQANPTATVKELHFISFEQHPLTKSDLIKATEKWPEFAHFSQQLHAHYPPAVSDCHRIVLDEGLITLDLWFGNITDSMPQVWTNDDGIVDAWFTDGFATESNAALLKSLTIINSIAILARENSTIHAITYHQGNQQDVLEQSLTEAGFDMTESHNEGHHHHHH” here?
**A.** soluble

**Q.** Which “soluble on expression in E. coli” value does the source give for “MQVQRAITRNLAKANGYFNKTFKPPTVNYTVRGLKAGVAYLQQNQIRFNPILLQENGQAFIQQVIPHELAHILVFQQFGHVLPHGKEWQMMMEQVLGTSAEVYHTFNTQNVAGQQFAYICACQTHLLSIRLHNAILKNKRQYICKQCKQVLYYKDVLANYSNNTKKLEHHHHHH” here?
**A.** not soluble

**Q.** Which “soluble on expression in E. coli” value does the source give for “MGSDKIHHHHHHMEMEFNENNIDLETIIRDEVNKYLSRDIGDLPATQQAPLELREKYEKMEVPNKGRDIYEVLKDLNNEVLNYLYRPNHPRSFSFIPGPASRLSWLGDILTTANNIHASNFANATLPINIERNLINYLVGKIGYEIKPAGGVFVSGGSMANLTAIVAARDAQVEMEDIKKATVYLTSQTHHSVGKALHVAGFLKNNIRRIEYNDDFTMNTDSLKAAIDKDIEEGYKPAMVIATAGTTNTGSVDDFTTLGDICDHYNLWLHVDGAYGLSHILSDKAQHLFKGIERSDSASWDAHKLLFQTYSCAMVIVKEKNHLLQSFGEDAEYLDDIASDDDVIDPEMLGIELTRPARALKLWITLQVIGEDEIIERIKYGEGLAEYAEEYVSSLDNWRIISHANLSIVNFRYENSDLTEAQNNQLNSMAAQKIADSGYAIAYTTVLNNQRVIRLCTTNPLTTHDDIRETINRLDQYIGDYDMKDA” here?
**A.** not soluble

**Q.** Which “soluble on expression in E. coli” value does the source give for “MRKLSTRPLPLGDGFFDSSSDSSESELSDKDDEDRYSDSTVSTLTSQDRRDTQGCQYPRSSELPISESPAPRARRARKQRSKRKSVKPPNTSSDDSSDDSDDSSSSSSSDDSVSSKSSTNSSDSSPCRCRDGLAEWEQRHGRRWHPYGRNGTWEPYRNRRRGIYDCENSPRETYSNGA” here?
**A.** not soluble

**Q.** For “MGSDKIHHHHHHMNVLEQFYQLGWTLDSAGGASGEAYMAEQDGQKLFLKRNSNPFIAALSAEGIVPKLVWTKRIETGEVVTAQHWKNGRELNEDEMNQTRVAELLHKIHGSRPLLTMLKRMEMEPITPDIMLNKINASLSREVLTHHVVRRALTYLEDHIPNLDARFFTVVHGDVNHNNWLLSDRDELYLVDWEGAMIADPAIDIGMLLYNYVPQNKWSQWFKTYGVEESVNLNKRMKWYTVIQAIGLIQWYEEQKRYRDMNTWLKFLNEVMNSNLFI”, which “soluble on expression in E. coli” value is on record?
**A.** not soluble

**Q.** For “RMNLKEAAKKAENKSDFVNHVLPHYCNIMFGLIETRSAFLHEKSNFFEGFLTKEGLINEDRFAPMFGIYGMAEAVDILMEKEGIEAKYGHDEIANQLGHAISKQLSEIVDATDVKYGYHGKALLHAQGGISLDIDVTPGVRIPYGTEPDPVSYVQATVGHHQYYTSGISDILTIDETVKSNPEAMFNLAKGALQLGYREFTANVASNDLVRITGYMVKLSDIAKYDAEGSRTNTTFL”, which “soluble on expression in E. coli” value is on record?
**A.** not soluble

**Q.** For “MSRSKKSRKPGTNSNDQLVVVRTRSESELESRLRKKLKKRKGLKSGSRHSEGSESQVRQAAQKRDPRLGSKKPIPLIVAEPKKLNKQERKLAAEQELAMLEKDAQLNVLLDRLDNGEKLGIGLQKYVDEKLDRIEVLMEQLGLLDDEPEPAPAPQSKPTKKRKTEDDLLSEFEQLDVDKYQD”, which “soluble on expression in E. coli” value is on record?
**A.** not soluble

**Q.** For “MNDTLPGRISRERRGHLLLLGLDRVAKRNAFDLPMLDDLVAALGEYEADDQLRCALLFAHGEHFTAGLDLANVGETFRQGWKLPEGAVDPWGTFGGRRPSKPLVVAVQGYCYTIGIELMLAADINLCASNARFAQLEVQRGILPFGGATLRMHQVAGWGNAMRWLLTGDEFDAHEAYRLGLVQEVTAPEDLLDHAIALAERVAAQAPLGVRATLGSARQALLEGEAVAAAALPEAARRLLDSEDAKEG”, which “soluble on expression in E. coli” value is on record?
**A.** not soluble

**Q.** With “MGSDKIHHHHHHMDINLRFFSRLNPWLNSLFTSKATLKTEIDEAQQGQMSLKTIANQYPLQARRGPITQVMLYQSLYASDDFVGREKQLNQITDVINQWRNHHGEISAIVSPAGSGGSSFLGQLPPLLQTIIADDAKKAPMPDVKPLPSKWLLMSFYQAPLGANGAIAHVCYCFGITPPNTITETIAAINQQPPQLIMIDDMHKLMLRMMGNNQALVTFATIVMETRKHHCWIMGCEIFAWQRLSAQYQIHHFIKHVFQLDYFSETELATIQTKHLLDLGLISNDVMAKETTTTPPNNTNKSTKEQTEQANIEQVDIVNPYKDQLKQLYTISQGHPKLASLLLQYSLAHQVDIGSDNSSNSRSNNGIDICRINSSVLQQCQDNDLFSVAEIYVHGGLRVSQHAHIFAITIEQSSLQLEYLARQGLIIAQYSQQDFAEHFYFITPTLSKIIANHLVNNNKLFN” as the sequence, how does the “soluble on expression in E. coli” value read?
**A.** not soluble

**Q.** With “MPQNYPWLNTEQPLSIKQLNGRVVILDFWTYCCINCLHVLPDLKYLEQKYKDSLTVIGVHSAKFDNEQETENIRQAILRYDIEHPVLVDKDFRVWQEYAVRAWPTLMVIDPKGYVIGYVSGEGNRDKLDQLITQVIQEHQGAINFQQLSLTLEKQRQPLITPLAFPGKVLATPSGLFVADSGHHRIVVSDFNGEILHLIGNGKSGLTDGNFQEAQFSAPQGMAFDMENQILYLADTENHALRRVDINQQTVETIAGTGEQSRNIQPHGGVGLETALNSPWDLVNIENSLYIAMAGVHQIWQMDLASGVIKTYAGTGVEACLDASLTESAFAQPSGITNNEQELYIADSEISSIRGVGLVEPQEVRTVCGSGGLFGFGDVDGQGEDVRLQHCLGVEYFQNYLWVADTYNHKIKSVSPHTGNCQTVLGDGLAGLQNGQGKNTRFFEPSGLSAIDSYLYISDTNNHVIRRVDLRTLEVTTMQFNGLCAPDVCIPNNFLEHHHHHH” as the sequence, how does the “soluble on expression in E. coli” value read?
**A.** soluble

Source: the DeepSol protein solubility set
